Patent US20220298217A1 (FLAGSHIP PIONEERING INNOVATIONS VI, published 2022)
Several values for one entry are separate records, joined by “and”; a condition that tells them apart may be missing. Identical values can stand only once.

What follows are binders tested against T1, Flag-PTHR1-YFP (parathyroid hormone receptor 1) expressed in transfected HEK293T cells (human, UniProt Q03431 27-593) (assay: cell-based or functional assay).
T1 sequence (looked up): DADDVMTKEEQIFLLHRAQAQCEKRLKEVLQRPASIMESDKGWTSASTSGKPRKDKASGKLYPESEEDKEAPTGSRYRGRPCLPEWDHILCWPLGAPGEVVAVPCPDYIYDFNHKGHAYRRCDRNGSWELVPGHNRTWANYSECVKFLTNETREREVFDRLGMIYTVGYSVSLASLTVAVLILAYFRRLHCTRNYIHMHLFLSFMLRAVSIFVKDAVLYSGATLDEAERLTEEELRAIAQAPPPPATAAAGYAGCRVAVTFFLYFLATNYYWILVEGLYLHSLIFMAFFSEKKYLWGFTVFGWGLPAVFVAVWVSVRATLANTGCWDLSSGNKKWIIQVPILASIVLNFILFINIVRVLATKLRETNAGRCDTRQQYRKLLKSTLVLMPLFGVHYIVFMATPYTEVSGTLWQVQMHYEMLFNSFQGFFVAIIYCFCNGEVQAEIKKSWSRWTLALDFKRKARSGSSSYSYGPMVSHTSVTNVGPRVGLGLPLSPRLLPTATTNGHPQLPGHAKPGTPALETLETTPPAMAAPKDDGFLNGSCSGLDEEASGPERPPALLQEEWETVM

| Binder | arrestin 1, plate 9: -log10EC50 | arrestin 1, plate 9: Emax | arrestin 2, plate 10: -log10EC50 | arrestin 1, plate 7: -log10EC50 | arrestin 2, plate 8: -log10EC50 | arrestin 1, plate 19: -log10EC50 | arrestin 2, plate 20: -log10EC50 | arrestin 1, plate 13: -log10EC50 | arrestin 1, plate 13: Emax | arrestin 1, plate 23: -log10EC50 |
| --- | --- | --- | --- | --- | --- | --- | --- | --- | --- | --- |
| SVMMIQVMHDLAKIRAEYELREMLLRLLEEIF [R2-8] | -8.43 -log10EC50 | 6.29 | -9.46 -log10EC50 | – | – | – | – | – | – | – |
| GVAMIQIMHDIAKIRAEYELREMLLRLLEEIF [R2-2] | – | – | – | -14 -log10EC50 and -12.2 -log10EC50 | 5.1 -log10EC50 and -14.8 -log10EC50 | – | – | – | – | – |
| AVAEIQLMHQRAKWLNELRLKEEMRKILEDVY [R2-33] | -8.23 -log10EC50 | 7.38 | -8.31 -log10EC50 | – | – | -7.99 -log10EC50 and -8.4 -log10EC50 | -8.09 -log10EC50 and -8.12 -log10EC50 | – | – | – |
| AVAEIQLMHQRAKWRLEIELLKKLKEILKDVY [R2-34] | -8.56 -log10EC50 | 7.29 | – | – | – | -8.18 -log10EC50 and -8.48 -log10EC50 | -8.09 -log10EC50 and -8.34 -log10EC50 | – | – | – |
| AVAEIQLMHQRAKWEIQEIGIKITLELLKEYI [R2-37] | -5.08 -log10EC50 | 19.4 | – | – | – | -3.6 -log10EC50 and -6.48 -log10EC50 | -6.3 -log10EC50 and -6.41 -log10EC50 | – | – | – |
| AVAEIQLMHQRAKWSILEELLKILTALLDEYI [R2-46] | – | – | – | – | – | – | – | -6.25 -log10EC50 | 17.3 | -6.35 -log10EC50 and -6.4 -log10EC50 |
| AVAEIQLMHQRAKWSLREELEKLLKELLKEYI [R2-44] | – | – | – | – | – | – | – | -8.54 -log10EC50 | 7.41 | -7.82 -log10EC50 and -8.55 -log10EC50 |
| AVAEIQLMHQRAKWGVELQLKVDLRRILEDVY [R2-35] | -3.53 -log10EC50 | 16.9 | – | – | – | -6.57 -log10EC50 and -7.44 -log10EC50 | -7.67 -log10EC50 and -7.82 -log10EC50 | – | – | – |
| AVAEIQLMHQRAKWGLEIELLKLLLSLLKEYI [R2-45] | – | – | – | – | – | – | – | -6.32 -log10EC50 | 20.4 | -6.33 -log10EC50 and -6.27 -log10EC50 |
| AVAEIQLMHQRAKWELEYELFEMFLKLLEEIF [I1 (R1-100)] | – | – | – | -6.22 -log10EC50 (2×) and -6.24 -log10EC50 | -5.41 -log10EC50 and -7.67 -log10EC50 and -6.27 -log10EC50 | – | – | – | – | – |
| AVAEIQLMHQRAKWDVLIELAKLLAELLRRYH [R2-47] | – | – | – | – | – | – | – | -5.84 -log10EC50 | 15.7 | -6.19 -log10EC50 and -5.44 -log10EC50 |
| AVAEIQLMHQRAKWELQEIGIAITLRLLARYI [R2-43] | – | – | – | – | – | – | – | -8.31 -log10EC50 | 7.23 | -6.3 -log10EC50 and -8.03 -log10EC50 |
| AVAEIQLMHQRAKWKLELELKAFLDQILKDVL [R2-36] | -8.83 -log10EC50 | 7.4 | – | – | – | -8.33 -log10EC50 and -8.54 -log10EC50 | -8.27 -log10EC50 and -8.6 -log10EC50 | – | – | – |

Same assay, conditions: not given

| Binder | arrestin 2, plate 24: -log10EC50 | arrestin 1, plate 17: -log10EC50 | arrestin 2, plate 18: -log10EC50 | arrestin 1, plate 21: -log10EC50 | arrestin 1, plate 21: Emax | arrestin 2, plate 22: -log10EC50 | arrestin 2, plate 22: Emax | arrestin 1, plate 11: -log10EC50 | arrestin 1, plate 11: Emax | arrestin 1, plate 1: -log10EC50 |
| --- | --- | --- | --- | --- | --- | --- | --- | --- | --- | --- |
| AVAEIQLMHQRAKWSILEELLKILTALLDEYI [R2-46] | -6.26 -log10EC50 and -6.27 -log10EC50 | – | – | – | – | – | – | – | – | – |
| AVAEIQLMHQRAKWSLREELEKLLKELLKEYI [R2-44] | -7.99 -log10EC50 and -5.45 -log10EC50 | – | – | – | – | – | – | – | – | – |
| AVAEIQLMHQRAKWGLDLELRARLREILRDVY [R2-31] | – | -8 -log10EC50 and -8.53 -log10EC50 | -8.12 -log10EC50 and -8.18 -log10EC50 | – | – | – | – | – | – | – |
| AVAEIQLMHQRAKWKLELELKEKIRKLLEDLL [R2-29] | – | -8.15 -log10EC50 and -8.77 -log10EC50 | -8.39 -log10EC50 and -8.46 -log10EC50 | – | – | – | – | – | – | – |
| AVAEIQLMHQRAKWEIQEIGIKITLDLLQTLK [R2-41] | – | – | – | -8.42 -log10EC50 | 6.44 | -6.03 -log10EC50 | 23.7 | – | – | – |
| AVAEIQLMHQRAKWDLLIELVKLLHELLKEYI [R2-40] | – | – | – | -5.44 -log10EC50 | 11.4 | -6.07 -log10EC50 | 20.9 | -6.24 -log10EC50 | 14.7 | – |
| AVAEIQLMHQRAKWLEELKLKDDLRKILEDVY [R2-30] | – | -7.88 -log10EC50 and -8.28 -log10EC50 | -7.92 -log10EC50 and -8.3 -log10EC50 | – | – | – | – | – | – | – |
| AVAEIQLMHQRAKWIQDARRRAFLHKLIAEIH [LA-PM-FL (R1-81)] | – | – | – | – | – | – | – | – | – | -8.58 -log10EC50 and -8.76 -log10EC50 and -8.45 -log10EC50 |
| AVAEIQLMHQRAKWGLEIELLKLLLSLLKEYI [R2-45] | -6.47 -log10EC50 and -6.59 -log10EC50 | – | – | – | – | – | – | – | – | – |
| AVAEIQLMHQRAKWKLDLELAVSLRKILEDVY [R2-27] | – | -7.92 -log10EC50 and -8.02 -log10EC50 | -7.65 -log10EC50 and -8.08 -log10EC50 | – | – | – | – | – | – | – |
| AVAEIQLMHQRAKWAIQEIGIKITRELLERYL [R2-42] | – | – | – | -4.99 -log10EC50 and -7.96 -log10EC50 | – | -7.63 -log10EC50 and -8.09 -log10EC50 | – | -7.98 -log10EC50 | 7.87 | – |
| AVAEIQLMHQRAKWDVLIELAKLLAELLRRYH [R2-47] | -5.46 -log10EC50 and -5.86 -log10EC50 | – | – | – | – | – | – | – | – | – |
| AVAEIQLMHQRAKWELLEELLKILLELLKEYI [R2-38] | – | – | – | -10.7 -log10EC50 | 6.36 | -14 -log10EC50 | 6.45 | – | – | – |
| AVAEIQLMHQRAKWGLELELKEKLRKILEDVY [R2-26] | – | -7.89 -log10EC50 and -7.57 -log10EC50 | -7.79 -log10EC50 and -7.9 -log10EC50 | – | – | – | – | – | – | – |
| AVAEIQLMHQRAKWELQEIGIAITLRLLARYI [R2-43] | -6.24 -log10EC50 and -7.91 -log10EC50 | – | – | – | – | – | – | – | – | – |
| AVAEIQLMHQRAKWELQEIGIKITLDLLEAYL [R2-39] | – | – | – | -6.11 -log10EC50 and -6.23 -log10EC50 | – | -6.95 -log10EC50 and -6.4 -log10EC50 | – | 2.64 -log10EC50 | 15.4 | – |
| AVAEIQLMHQRAKWGLDLELAVKLQEILKDVL [R2-28] | – | -15 -log10EC50 | -6.1 -log10EC50 | – | – | – | – | – | – | – |

Same assay, conditions: not given

| Binder | arrestin 2, plate 2: -log10EC50 | arrestin 1, plate 15: -log10EC50 | arrestin 2, plate 16: -log10EC50 | arrestin 1, plate 17: Emax | arrestin 2, plate 18: Emax | arrestin 1, plate 5: -log10EC50 | arrestin 1, plate 25: -log10EC50 | arrestin 1, plate 25: Emax | arrestin 2, plate 6: -log10EC50 | arrestin 2, plate 26: -log10EC50 |
| --- | --- | --- | --- | --- | --- | --- | --- | --- | --- | --- |
| AVAEIQLMHQRAKWIQDARRRAFLHKLIAEIH [LA-PM-FL (R1-81)] | -8.52 -log10EC50 and -8.51 -log10EC50 and -8.44 -log10EC50 | – | – | – | – | – | – | – | – | – |
| AVAEIQLMHQRAKWKLELELKVKLLEILKDVY [R2-25] | – | -8.27 -log10EC50 and -8.59 -log10EC50 | -8.37 -log10EC50 and -8.76 -log10EC50 | – | – | – | – | – | – | – |
| AVAEIQLMHQRAKWGLDLELAVKLQEILKDVL [R2-28] | – | – | – | 6.35 | 18.5 | – | – | – | – | – |
| AVAEIQLMHQRAKWELEFELFREFLKLLVDFF [I3 (R1-97)] | – | – | – | – | – | -5.38 -log10EC50 and -8.1 -log10EC50 and -6.02 -log10EC50 | -11.5 -log10EC50 | 10.3 | -6.2 -log10EC50 and -5.16 -log10EC50 and -6.19 -log10EC50 | -6.36 -log10EC50 |

Same assay, conditions: not given

| Binder | arrestin 2, plate 26: Emax |
| --- | --- |
| AVAEIQLMHQRAKWELEFELFREFLKLLVDFF [I3 (R1-97)] | 21.5 |
